Laboratory results reported in paper PMC11098746 (2024).
No end group written: not given here.

What follows are binders tested against Circumsporozoite protein (CSP) (Plasmodium falciparum (isolate 3D7), UniProt Q7K740) (assay: AVEXIS screen signal:noise (double-corrected)).
Sequence of Circumsporozoite protein (CSP) (Q7K740 19-374): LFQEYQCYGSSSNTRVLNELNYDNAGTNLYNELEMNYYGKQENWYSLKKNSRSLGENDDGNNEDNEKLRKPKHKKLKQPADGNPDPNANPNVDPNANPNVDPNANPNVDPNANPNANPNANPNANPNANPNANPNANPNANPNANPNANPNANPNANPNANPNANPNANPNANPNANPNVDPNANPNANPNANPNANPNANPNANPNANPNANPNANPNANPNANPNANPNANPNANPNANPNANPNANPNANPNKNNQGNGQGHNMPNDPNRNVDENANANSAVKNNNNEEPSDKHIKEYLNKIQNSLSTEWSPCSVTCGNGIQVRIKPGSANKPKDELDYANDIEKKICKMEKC

| Binder | binding score |
| --- | --- |
| ADP142 (protein, bait human Fc-tagged dimer) MGLGARGAWAALLLGTLQVLALLGAAHESAAMAASANIENSGLPHNSSANSTETLQHVPSDHTNETSNSTVKPPTSVASDSSNTTVTTMKPTAASNTTTPGMVSTNMTSTTLKSTPKTTSVSQNTSQISTSTMTVTHNSSVTSAASSVTITTTMHSEAKKGSKFDTGS | 0.7 |
| ADP287 (protein, also: human Fc-tagged dimer) MANPGLGLLLALGLPFLLARWGRAWGQIQTTSANENSTVLPSSTSSSSDGNLRPEAITA | 1.47 |
| ADP097 (protein, bait human Fc-tagged dimer) SPPRKREEAAAVPAAAPDDLALLKNLRSEEQKKKNRKKLSEKPKPNGRTVEVAEGEAVRTPQSVTAKQPPEIDKKNEKSKKNKKKSKSDAKAVQNSSRHDGKEVDEGAWETKISHREKRQQRKRDKVLTDSGSLDSTIPGIENTITVTTEQLTTASFPVGSKKNKGDSHLNVQVSNFKSGKGDSTLQVSSGLNENLTVNGGGWNEKSVKLSSQISAGEEKWNSVSPASAGKRKTEPSAWSQDTGDANTNGKDWGRSWSDRSIFSGIGSTAEPVSQSTTSDYQWDVSRNQPYIDDEWSGLNGLSSADPNSDWNAPAEEWGNWVDEERASLLKSQEPIPDDQKVSDDDKEKGEGALPTGKSKKKKKKKKKQGEDNSTAQDTEELEKEIREDLPVNTSKTRPKQEKAFSLKTISTSDPAEVLVKNSQPIKTLPPATSTEPSVILSKSDSDKSSSQVPPILQETDKSKSNTKQNSVPPSQTKSETSWESPKQIKKKKKARRET | 1.17 |
| ADP390 (protein, bait human Fc-tagged dimer) GTDDATADSRKTYTLTDYLKNTYRLKLYSLRWISDHEYLYKQENNILVFNAEYGNSSVFLENSTFDEFGHSINDYSISPDGQFILLEYNYVKQWRHSYTASYDIYDLNKRQLITEERIPNNTQWVTWSPVGHKLAYVWNNDIYVKIEPNLPSYRITWTGKEDIIYNGITDWVYEEEVFSAYSALWWSPNGTFLAYAQFNDTEVPLIEYSFYSDESLQYPKTVRVPYPKAGAVNPTVKFFVVNTDSLSSVTNATSIQITAPASMLIGDHYLCDVTWATQERISLQWLRRIQNYSVMDICDYDESSGRWNCLVARQHIEMSTTGWVGRFRPSEPHFTLDGNSFYKIISNEEGYRHICYFQIDKKDCTFITKGTWEVIGIEALTSDYLYYISNEYKGMPGGRNLYKIQLSDYTKVTCLSCELNPERCQYYSVSFSKEAKYYQLRCSGPGLPLYTLHSSVNDKGLRVLEDNSALDKMLQNVQMPSKKLDFIILNETKFWYQMILPPHFDKSKKYPLLLDVYAGPCSQKADTVFRLNWATYLASTENIIVASFDGRGSGYQGDKIMHAINRRLGTFEVEDQIEAARQFSKMGFVDNKRIAIWGWSYGGYVTSMVLGSGSGVFKCGIAVAPVSRWEYYDSVYTERYMGLPTPEDNLDHYRNSTVMSRAENFKQVEYLLIHGTADDNVHFQQSAQISKALVDVGVDFQAMWYTDEDHGIASSTAHQHIYTHMSHFIKQCFSLP | 0.756 |
| ADP285 (protein, bait human Fc-tagged dimer) LTQGYNNWTNGLYGYSWDMMVHSRSHQHVKITYRDGRTGELGYLNPGVFTQSRRWKDHADMLKQYATCLSRLLPKYNVTEPQIYFDIWVSINDRFQQRIFDPRVDIVQAAWSPFQRTSWVQPLLMDLSPWRAKLQEIKSSLDNHTEVVFIADFPGLHLENFVSEDLGNTSIQLLQGEVTVELVAEQKNQTLREGEKMQLPAGEYHKVYTTSPSPSCYMYVYVNTTELALEQDLAYLQELKEKVENGSETGPLPPELQPLLEGEVKGGPEPTPLVQTFLRRQQRLQEIERRRNTPFHERFFRFLLRKLYVFRRSFLMTCISLRNLILGRPSLEQLAQEVTYANLRPFEAVGELNPSNTDSSHSNPPESNPDPVHSEF | 0.774 |
